Laboratory results taken from US20030124602.

Tested on: Flag epitope tagged CTMPs (F.CTMPs; CTMP starting at the natural ATG of the cDNA)
Sequence (chain, as listed by the source): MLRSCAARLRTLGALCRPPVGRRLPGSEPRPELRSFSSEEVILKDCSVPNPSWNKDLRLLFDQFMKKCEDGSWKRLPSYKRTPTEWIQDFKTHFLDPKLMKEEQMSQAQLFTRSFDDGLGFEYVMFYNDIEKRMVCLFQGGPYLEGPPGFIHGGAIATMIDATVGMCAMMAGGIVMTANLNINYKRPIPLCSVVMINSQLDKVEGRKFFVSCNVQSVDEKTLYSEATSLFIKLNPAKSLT

Question: For “HA epitope-tagged PKB alpha (HA-PKBα, pCMV5-HA-PKBα)”, which “phosphorylation of PKB on Thr 308 and Ser 473, Western blot with phospho-specific antibodies” value is on record?
Answer: Its value is “CTMP expression leads to a reduction of phosphorylation on both residues but most notably on the S473 site”.
